Results reported in patent publication US20040072319A1, “Molecules that modulate ubiquintin-dependent proteolysis and methods for identifying same” (priority 2003, published 2004).
Values joined by “and” are separate entries in the source; they are usually repeats but may differ in a detail not shown here. Equal entries are not always repeated. Square brackets hold non-standard residues; d marks the D form. Ends that are not written are not given here. Peptide text beside a SMILES is read from it. pY = N[C@@H](Cc1ccc(OP(=O)(O)O)cc1)C(=O)O; pT = C[C@@H](OP(=O)(O)O)[C@H](N)C(=O)O; pS = N[C@@H](COP(=O)(O)O)C(=O)O

B1: SicpT45 peptide VPVpTPSTTK (peptide)
peptide: VPV[pT]PSTTK
notes: also called Sic1 pT45 phosphopeptide; Sic1 15-pT45 peptide

molecular target: T1, Skp1-Cdc4 complex (yeast, UniProt P07834 1-779; P52286 1-194, limits assumed); experiment: fluorescence polarization; settings: not given
T1 construct: Purified complex (Gst removed by TEV, size exclusion) for fluorescence polarization and SPOTS arrays; also called Cdc4/Skp1; cdc4/skp1 complex
T1 sequence (P07834 whole entry, chain 1 of 2): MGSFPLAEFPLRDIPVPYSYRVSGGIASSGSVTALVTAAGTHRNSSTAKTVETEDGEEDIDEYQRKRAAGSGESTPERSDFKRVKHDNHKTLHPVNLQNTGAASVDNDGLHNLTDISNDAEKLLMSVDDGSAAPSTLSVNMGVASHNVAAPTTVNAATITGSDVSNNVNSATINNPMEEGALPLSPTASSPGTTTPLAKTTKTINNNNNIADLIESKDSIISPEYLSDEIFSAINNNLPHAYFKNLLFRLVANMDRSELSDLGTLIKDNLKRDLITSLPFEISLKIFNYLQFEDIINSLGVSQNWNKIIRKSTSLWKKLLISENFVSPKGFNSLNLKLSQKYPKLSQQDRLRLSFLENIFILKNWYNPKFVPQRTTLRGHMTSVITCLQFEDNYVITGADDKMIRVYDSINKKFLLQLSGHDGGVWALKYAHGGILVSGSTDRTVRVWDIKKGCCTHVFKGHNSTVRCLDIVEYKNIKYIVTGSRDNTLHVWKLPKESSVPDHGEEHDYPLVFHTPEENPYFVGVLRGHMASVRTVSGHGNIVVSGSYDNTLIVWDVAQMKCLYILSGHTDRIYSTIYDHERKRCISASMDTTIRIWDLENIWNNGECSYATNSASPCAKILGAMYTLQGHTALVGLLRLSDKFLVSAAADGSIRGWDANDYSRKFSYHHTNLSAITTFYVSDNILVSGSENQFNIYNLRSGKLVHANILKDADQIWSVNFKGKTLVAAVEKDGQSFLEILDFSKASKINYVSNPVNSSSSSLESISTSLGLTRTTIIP
T1 sequence (P52286 whole entry, chain 2 of 2): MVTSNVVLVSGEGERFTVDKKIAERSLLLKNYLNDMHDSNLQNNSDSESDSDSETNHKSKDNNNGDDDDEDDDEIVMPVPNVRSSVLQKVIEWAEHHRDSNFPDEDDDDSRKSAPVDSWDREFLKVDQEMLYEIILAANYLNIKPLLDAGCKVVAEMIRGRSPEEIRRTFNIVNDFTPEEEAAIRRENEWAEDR

Q: Does GLL[pT]APQSG [CycEA1-9mer GLLpTAPQSG] bind?
A: Result: no binding (tested: up to [Cdc4/Skp1] of 10 µM)

Q: Does GLL[pY]PPQSG (also called CycE19-pY380) [CycEpY-9mer GLLpYPPQSG] bind?
A: Result: no binding (tested: up to [Cdc4/Skp1] of 10 µM)

Q: Does PKPLNLSKPI[pS]PPPSLKKTA [Far 1 pS87 peptide PKPLNLSKPIpSPPPSLKKTA] bind?
A: Result: no binding (tested: up to [Cdc4/Skp1] of 10 µM)

Q: Does B1 bind?
A: Result: no binding (tested: up to [Cdc4/Skp1] of 10 µM)

Q: Does VEQ[pT]PKKPG [p27pT187 peptide VEQpTPKKPG] bind?
A: Result: no binding (tested: up to [Cdc4/Skp1] of 10 µM)

Q: Does NVQ[pT]PTLMA (also called Pcl2) [Pc12 peptide NVQpTPTLMA] bind?
A: Result: no binding (tested: up to [Cdc4/Skp1] of 10 µM)

molecular target: T2, Cdc4-Skp1 complexes (Saccharomyces cerevisiae, UniProt P07834); experiment: Peptide out-competition of phosphorylated substrates binding to Cdc4-Skp1; parameters: species or system yeast; settings: peptide 3, 17, 68 μM in FIG. 6f
T2 construct: made in house; host or cells: insect cells (baculovirus)
T2 sequence (P07834 whole entry): as the sequence (P07834 whole entry, chain 1 of 2) above
T2 sequence (P52286 whole entry partner): as the sequence (P52286 whole entry, chain 2 of 2) above
From the text: SCF complexes were purified from SF9 cells infected with recombinant baculoviruses and used in binding assays and ubiquitination reactions essentially as described (7). Gst-Skp1 expressed in BL21 codon plus cells (Stratagene) then purified on glutathione resin was used to capture full Cdc4 from insect cell lysates. Truncated forms of Cdc4 were enriched prior to Gst-Skp1 capture by affinity purification of hexahistidine fusion proteins on a metal chelate column. The Skp1-Cdc4 complexes were released from the Gst moiety by cleavage with TEV protease and further purified by size exclusion chromatography on a Superdex S75 or S200 column. Biotin labeled […]p[…] (SEQ ID NO. 1), […] (SEQ ID NO. 12), and APPLSQEpTFSDLWK (SEQ ID NO. 13) were synthesized by addition of d-biotin (Sigma) with an Fmoc-e-aminocaproic acid (Bachem) spacer to carboxy-terminal peptides. […] Streptavidin-agarose beads (Sigma) were incubated in the presence of biotinylated peptide for 90 min. at 4° C. Beads were washed 3 times and then incubated with lysates from Cdc4 expressing baculovirus infected Sf9 cells. Beads were washed 4 times, after which SDS-PAGE gel loading buffer was added and the beads were boiled for 5 min. Proteins were separated by SDS-PAGE and visualized by silver stain. Peptide out-competition of phosphorylated substrates was carried out with immunopurified Skp1^FLAG-Cdc4 from insect cells, which were incubated with phosphopeptides prior to addition of phospho-Sic1 or phospho-Cyclin E-Cdk2. For kinase inhibition assays, purified recombinant Clb5-Cdc28 complex (30 ng) was incubated with mutant forms of Sic1 (40 ng) and histone H1 (HH1, 2 μg) for 1 h on ice prior to addition of [^32P]-γ-ATP and incubation at 25° C. for 30 min. Samples were separated by SDS-PAGE and visualized by autoradiography.

Q: How did the “competition with substrates (Sic1, cyclin E1, Far1) for binding to Cdc4” value (from here on “competition with substrates”) turn out when VPVpTPSTTK (VPV[pT]PSTTK) [SicpT45] was run?
A: Its value is “nor block the interaction”.

Q: Which “competition with substrates” value does the source give for “PKPLNLSKPIpSPPPSLKKTA (PKPLNLSKPI[pS]PPPSLKKTA) [Far 1 pS87]” here?
A: Its value is “nor block the interaction”.

Q: For “Sic1 15-pT45: Sic1 phosphopeptide centered on pT45; possibly the SicpT45 peptide of Table 1”, which “competition with substrates” value is on record?
A: The value was “does not measurably bind Cdc4 or compete with substrates”.

molecular target: T1, Skp1-Cdc4 complex; experiment: fluorescence polarization, 5 nM fluorescein-labeled peptide, Cdc4/Skp1 titrated; settings: not given

Q: How did the Kd turn out when CycEK2-9mer GLLpTPKQSG (peptide) was run?
A: The Kd was 6.3 µM.

Q: How did the Kd turn out when CycEK3-9mer GLLpTPPKSG (peptide) was run?
A: The Kd was 5.1 µM.

Q: Which Kd does the source give for CycE-5mer LLpTPP (peptide) here?
A: The Kd was 0.85 µM.

Q: With CycEK-2-9mer GKLpTPPQSG (peptide) as the molecule, how does the Kd read?
A: Its Kd is 12 µM.

Q: Which Kd does the source give for CycEK4-9mer GLLpTPPQKG (peptide) here?
A: Its Kd is 4.3 µM.

Q: CycEK5-9mer GLLpTPPQSK (peptide) was tested. Which Kd did it give?
A: The Kd was 2.4 µM.

Q: With CycEK-1-9mer GLKpTPPQSG (peptide) as the molecule, how does the Kd read?
A: Its Kd is 6 µM.

molecular target: Cdc4 (Saccharomyces cerevisiae, UniProt P07834); experiment: Fluorescence polarization equilibrium binding of peptides to Cdc4; parameters: made in house; host or cells: Cdc4: baculovirus-infected insect (Sf9) cells; Gst-Skp1: E. coli BL21 codon plus; species or system yeast; settings: not given
Method: Equilibrium binding constant determination was carried out using fluorescence polarization on a Beacon 2000 Fluorescence Polarization System (Pan Vera, Wis.) equipped with a 100 μL sample chamber. Fluorescein-labeled probes were prepared through the reaction of carboxyterminal-peptides with 5-(and-6)-carboxyfluorescein succinimidyl ester (Molecular Probes), purified by reverse-phase HPLC, and confirmed by mass spectrometry. Binding studies were conducted with 5 nM fluorescein-labeled probe dissolved in PBS containing 100 μg/ml BSA and 1 mM dithiothreitol. Reaction mixtures were allowed to equilibrate for 10 minutes at room temperature prior to each measurement. All fluorescence polarization measurements were conducted at 22° C.

Q: How did the “binding to Cdc4 (in words)” value turn out when VPVpTPSTTK (VPV[pT]PSTTK) [SicpT45] was run?
A: Its value is “could neither bind stably to Cdc4”.

Q: How did the “binding to Cdc4 (in words)” value turn out when GLLpYPPQSG (GLL[pY]PPQSG) [CycEpY-9mer] was run?
A: Its value is “failed to bind”.

Q: For “PKPLNLSKPIpSPPPSLKKTA (PKPLNLSKPI[pS]PPPSLKKTA) [Far 1 pS87]”, which “binding to Cdc4 (in words)” value is on record?
A: The value was “could neither bind stably to Cdc4”.

Q: How did the “binding to Cdc4 (in words)” value turn out when “Sic1 15-pT45: Sic1 phosphopeptide centered on pT45; possibly the SicpT45 peptide of Table 1” was run?
A: Its value is “does not measurably bind Cdc4”.

same assay, conditions: K, (μM), Table 1; average of at least 3 sets of readings, ± SEM; ND = no binding detected up to [Cdc4/Skp1] of 10 μM; ˜ = saturation binding not achieved

Q: With CC(=O)NCCCC[C@H](NC(=O)[C@@H]1CCCN1C(=O)[C@@H]1CCCN1C(=O)[C@@H](NC(=O)[C@H](CC(C)C)NC(=O)[C@H](CC(C)C)NC(=O)CNC(=O)c1ccc2c(c1)C(=O)OC21c2ccc(O)cc2Oc2cc(O)ccc21)[C@@H](C)OP(=O)(O)O)C(=O)N[C@@H](CO)C(=O)NCC(=O)O [CycEK3Ac-9mer, GLLpTPPK(Ac)SG] (HELM PEPTIDE1{[O=C1OC2(c3ccc(O)cc3Oc3cc(O)ccc32)c2ccc(C(=O)[*:2])cc21].G.L.L.[C[C@@H](OP(=O)(O)O)[C@H](N[*:1])C(=O)[*:2]].P.P.K.S.G}|PEPTIDE2{[ac]}$PEPTIDE1,PEPTIDE2,8:R3-1:R2$$$V2.0) as the molecule, how does the Kd read?
A: The Kd was 1 ± 0.1 µM.

Q: For CC[C@H](C)[C@H](NC(=O)[C@@H]1CCCN1C(=O)[C@@H](NC(=O)[C@H](CC(C)C)NC(=O)[C@H](CC(C)C)NC(=O)[C@H](CCC(=O)O)NC(=O)c1ccc2c(c1)C(=O)OC21c2ccc(O)cc2Oc2cc(O)ccc21)[C@@H](C)OP(=O)(O)O)C(=O)N[C@@H](CC(C)C)C(=O)N[C@@H](C)C(=O)N[C@@H](Cc1ccccc1)C(=O)O [Pc17, ELLpTPILAF] (HELM PEPTIDE1{[O=C1OC2(c3ccc(O)cc3Oc3cc(O)ccc32)c2ccc(C(=O)[*:2])cc21].E.L.L.[C[C@@H](OP(=O)(O)O)[C@H](N[*:1])C(=O)[*:2]].P.I.L.A.F}$$$$V2.0), which Kd is on record?
A: Its Kd is roughly 40 µM.

Q: For CC(C)C[C@H](NC(=O)CNC(=O)c1ccc2c(c1)C(=O)OC21c2ccc(O)cc2Oc2cc(O)ccc21)C(=O)N[C@@H](CC(C)C)C(=O)N[C@H](C(=O)N1CCC[C@H]1C(=O)N1CCC[C@H]1C(=O)N[C@@H](CCC(N)=O)C(=O)N[C@@H](CO)C(=O)NCC(=O)O)[C@@H](C)OP(=O)(O)O [CycE-9mer, GLLpTPPQSG] (HELM PEPTIDE1{[O=C1OC2(c3ccc(O)cc3Oc3cc(O)ccc32)c2ccc(C(=O)[*:2])cc21].G.L.L.[C[C@@H](OP(=O)(O)O)[C@H](N[*:1])C(=O)[*:2]].P.P.Q.S.G}$$$$V2.0), which Kd is on record?
A: Its Kd is 1 ± 0.05 µM.

Q: How did the Kd turn out when CC[C@H](C)[C@H](NC(=O)[C@H](CC(C)C)NC(=O)[C@H](CCC(N)=O)NC(=O)[C@H](CCC(=O)O)NC(=O)[C@H](CCC(N)=O)NC(=O)[C@@H]1CCCN1C(=O)[C@@H](NC(=O)[C@H](Cc1ccccc1)NC(=O)[C@H](CCC(N)=O)NC(=O)[C@@H]1CCCN1C(=O)[C@H](Cc1ccccc1)NC(=O)[C@H](CCC(=O)O)NC(=O)CNC(=O)[C@@H](NC(=O)c1ccc2c(c1)C(=O)OC21c2ccc(O)cc2Oc2cc(O)ccc21)[C@@H](C)O)[C@@H](C)OP(=O)(O)O)C(=O)O [FarpT306, TGEFPQFpTPQEQLI] (HELM PEPTIDE1{[O=C1OC2(c3ccc(O)cc3Oc3cc(O)ccc32)c2ccc(C(=O)[*:2])cc21].T.G.E.F.P.Q.F.[C[C@@H](OP(=O)(O)O)[C@H](N[*:1])C(=O)[*:2]].P.Q.E.Q.L.I}$$$$V2.0) was run?
A: Its Kd is roughly 25 µM.

Q: With CSCC[C@H](NC(=O)[C@@H]1CCCN1C(=O)[C@@H]1CCCN1C(=O)[C@@H](NC(=O)[C@@H](NC(=O)[C@@H]1CCCN1C(=O)[C@@H]1CCCN1C(=O)c1ccc2c(c1)C(=O)OC21c2ccc(O)cc2Oc2cc(O)ccc21)C(C)C)[C@@H](C)OP(=O)(O)O)C(=O)N[C@@H](CO)C(=O)N1CCC[C@H]1C(=O)O [Ash 1 pT290, PPVpTPPMSP] (HELM PEPTIDE1{[O=C1OC2(c3ccc(O)cc3Oc3cc(O)ccc32)c2ccc(C(=O)[*:2])cc21].P.P.V.[C[C@@H](OP(=O)(O)O)[C@H](N[*:1])C(=O)[*:2]].P.P.M.S.P}$$$$V2.0) as the molecule, how does the Kd read?
A: The Kd was roughly 25 µM.

same assay, conditions: dissociation constant Kd for Cdc4

Q: How did the Kd turn out when CC(C)C[C@H](NC(=O)CNC(=O)c1ccc2c(c1)C(=O)OC21c2ccc(O)cc2Oc2cc(O)ccc21)C(=O)N[C@@H](CC(C)C)C(=O)N[C@@H](COP(=O)(O)O)C(=O)N1CCC[C@H]1C(=O)N1CCC[C@H]1C(=O)N[C@@H](CCC(N)=O)C(=O)N[C@@H](CO)C(=O)NCC(=O)O [CycEpS-9mer, GLLpSPPQSG] (HELM PEPTIDE1{[O=C1OC2(c3ccc(O)cc3Oc3cc(O)ccc32)c2ccc(C(=O)[*:2])cc21].G.L.L.[O=C([C@H](COP(=O)(O)O)N[*:1])[*:2]].P.P.Q.S.G}$$$$V2.0) was run?
A: The Kd was 6 µM.

Q: With CC(C)C[C@H](NC(=O)[C@@H](NC(=O)[C@@H]1CCCN1C(=O)[C@@H](NC(=O)[C@@H]1CCCN1C(=O)[C@H](CC(C)C)NC(=O)[C@H](Cc1ccccc1)NC(=O)c1ccc2c(c1)C(=O)OC21c2ccc(O)cc2Oc2cc(O)ccc21)[C@@H](C)OP(=O)(O)O)C(C)C)C(=O)N[C@@H](CCC(=O)O)C(=O)N[C@@H](CC(=O)O)C(=O)O [Gcn4-9mer, FLPpTPVLED] (HELM PEPTIDE1{[O=C1OC2(c3ccc(O)cc3Oc3cc(O)ccc32)c2ccc(C(=O)[*:2])cc21].F.L.P.[C[C@@H](OP(=O)(O)O)[C@H](N[*:1])C(=O)[*:2]].P.V.L.E.D}$$$$V2.0) as the molecule, how does the Kd read?
A: The Kd was 0.675 µM and 0.88 µM.
